Source: patent US20220033501A1 (SHANGHAI PHARMAEXPLORER, published 2022)
Substitutions are numbered along the chain they refer to.

B1: 7A4F10 fully human TIM-3 antibody (human IgG4, kappa) (antibody, V domains shown)
VH: EVQLLESGGGLVQPGGSLRLSCAASGFTFRTHLISWVRQAPGKGLEWVAAITGSGGSTYYADSVKGRFIISRDNSKNTLFLQMNSLRAEDTAVYYCAKDGGSGSYDDFWGQGTLVTVSS
VL: ETVLTQSPVTLSLSPGERATLSCRASQSVGSYLAWYQQKPGQAPRLLIYDASNRATGIPARFSGSGSGTDFTLTISSLEPEDFAVYYCQQRSNWPPTFGQGTKVEIK
B2: 7A4F10 (TIM-3 antibody purified from hybridoma, chimeric antibody of Example 2) (antibody, V domains shown)
VH: B1 VH
VL: B1 VL
notes: From hybridoma of Harbour H2L2 transgenic mice: human variable regions, rat constant regions
B3: 34B6D8 fully human TIM-3 antibody (human IgG4, kappa) (antibody, V domains shown)
VH: EVQLVESGGGLVQPGGSLRLSCAASGFTFSTYWMTWVRQAPGKRLEWVANIKQGGGDKYYVDSVKGRFTISTDNAKNSLYLQMNSLRAEDTAVYYCARGSNWFDPWGQGTLVTVSS
VL: EIVMTQSPATLSMSPGERATLSCRASQSVYDNLAWYQQKPGQAPRLLIYGASTRATGIPARFSGSGSGTEFTLTISSLQSEDFALYYCQQYTHWPITFGQGTRLEIK
B4: 34B6D8 (TIM-3 antibody purified from hybridoma, chimeric antibody of Example 2) (antibody, V domains shown)
VH: B3 VH
VL: B3 VL
notes: as for B2
B5: 215A8F2 fully human TIM-3 antibody (human IgG4, kappa) (antibody, V domains shown)
VH: QVQLQQWGAGLLKPSETLSLTCTVYGGSFSGYYWNWIRQPPGKGLEWLGEINHSGSTNYNPSLKRRVTISVDTSKNQFSLKLSSVTAADTAVYYCARVYYYGPFDFWGQGTLVTVSS
VL: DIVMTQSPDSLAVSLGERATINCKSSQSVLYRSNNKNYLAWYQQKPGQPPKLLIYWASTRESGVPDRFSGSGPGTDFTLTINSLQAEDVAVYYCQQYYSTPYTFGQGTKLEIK
B6: 215A8F2 (TIM-3 antibody purified from hybridoma, chimeric antibody of Example 2) (antibody, V domains shown)
VH: B5 VH
VL: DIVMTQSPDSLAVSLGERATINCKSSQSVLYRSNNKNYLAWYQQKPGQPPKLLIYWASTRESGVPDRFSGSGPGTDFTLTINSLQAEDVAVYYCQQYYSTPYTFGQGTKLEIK
notes: as for B2
B7: 57F4E5 fully human TIM-3 antibody (human IgG4, kappa) (antibody, V domains shown)
VH: EVQLVESGGGLVQPGGSLRLSCAASGFTFSSYWMSWVRQAPGKGLEWVANIKQDGSEKYYVDSVKGRFTISRDSAKNSLYLQMNSLRAEDTAMYFCARDSNFFDYWGQGTLVTVSS
VL: ETVMTQSPATLSVSPGERATLSCRASQSVSSNLAWYQRKPGQAPRLLIYFSSTRATGIPARFSGSGSGTEFTLTISSLQSEDFAVYYCQQYNNWPLTFGGGTKVEIK
B8: 39E5H1 (TIM-3 antibody purified from hybridoma, chimeric antibody of Example 2) (antibody, V domains shown)
VH: B3 VH with T31S, T35S, R44G, Q53R, G56S, D57E, K58R, T72G, L79V
VL: B3 VL with I2T, T10I, M13V, D31S, P40L, G50D, L85V, T92N, H93N
notes: as for B2
B9: 39E5H1 fully human TIM-3 antibody (human IgG4, kappa) (antibody, V domains shown)
VH: B3 VH with T31S, T35S, R44G, Q53R, G56S, D57E, K58R, T72G, L79V
VL: B3 VL with I2T, T10I, M13V, D31S, P40L, G50D, L85V, T92N, H93N
B10: 57F4E5 (TIM-3 antibody purified from hybridoma, chimeric antibody of Example 2) (antibody, V domains shown)
VH: B7 VH
VL: B7 VL
notes: as for B2
B11: 18D2H2 (TIM-3 antibody purified from hybridoma, chimeric antibody of Example 2) (antibody, V domains shown)
VH: B3 VH with G10D, K43R, R44G, G54D, G56S, D57A, I70L, T72R, N74D, P105Y
VL: B7 VL with S26N, S28N, S30Y, R38Q, F50D, S51A, I58F
notes: as for B2
B12: 134H3G6 fully human TIM-3 antibody (human IgG4, kappa) (antibody, V domains shown)
VH: EVQLVESGGGLVQPGGSLRLSCAASGFTFSNSWMTWVRQAPGKGLEWVANIKQAGTEKYYVDSVKGRFTISRDNAKNSLYLQMNSLRAEDTAVYYCNSGSNYFDYWGQGTLVTVSS
VL: B7 VL with T2I, S26R, S28N, V29F, S30Y, R38Q, F50G, S51A
B13: 134H3G6 (TIM-3 antibody purified from hybridoma, chimeric antibody of Example 2) (antibody, V domains shown)
VH: B12 VH
VL: B7 VL with T2I, S26R, S28N, V29F, S30Y, R38Q, F50G, S51A
notes: as for B2

How the values were obtained:
[1] = molecular target: T1, human TIM-3 extracellular domain protein with hFc tag (hTIM-3-hFc) (human, UniProt Q8TDQ0 22-200); experiment: FACS, blocking of hTIM-3-hFc binding to phosphatidylserine on apoptotic Jurkat cells, 0 nM antibody
T1 construct: not shown: human IgG Fc fragment (hFc) of the pCpC vector
T1 sequence: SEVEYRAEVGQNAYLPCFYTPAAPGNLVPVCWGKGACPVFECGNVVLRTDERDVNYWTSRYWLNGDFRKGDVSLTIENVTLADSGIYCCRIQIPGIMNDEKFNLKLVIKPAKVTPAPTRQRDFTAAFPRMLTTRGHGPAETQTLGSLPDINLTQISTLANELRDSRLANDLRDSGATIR
Method: (§1) Jurkat cells were treated with 1 μM staurosporine at 37° C. for 2 hours to induce apoptosis. The presence of phosphatidylserine was detected by Annexin V-FITC cell apoptosis detection kit. […] The cells were washed 1-2 times with PBS buffer, and after cell counting, the cells were diluted to 1-2×10⁶ cells per milliliter with binding buffer, and added to a 96-well FACS reaction plate at 100 microliters per well. The antibody sample to be tested and 2 μg/ml hTIM-3-hFc protein were prepared with binding buffer, and mixed equally in volume. The mixture was incubated at room temperature for 30 minutes, then the FACS reaction plate incubated with apoptotic cells was centrifuged to discard the supernatant, and the above mixture was added to the apoptotic cells at 100 microliters per well and incubated at room temperature for 1 hour. The plate was washed twice with the binding buffer by centrifugation, added with 100 microliters of fluorescent (Alexa 488)-labeled secondary antibodies per well, and incubated for half an hour. The plate was washed 2-3 times with the binding buffer by centrifugation, added with 100 microliters of PBS per well to suspend cells, and detected using FACS (FACS Calibur, BD) and the results were analyzed. The results are shown in Table 15 and FIG. 15, wherein the IgG control is human IgG, and the data in the table is the inhibition rate (%).

[2] = molecular target: T1, human TIM-3 extracellular domain …; experiment: FACS, blocking of hTIM-3-hFc binding to phosphatidylserine on apoptotic Jurkat cells, 200 nM antibody
Method: as §1

[3] = molecular target: T2, murine TIM-3 extracellular domain protein with hFc tag (mTIM-3-hFc) (mouse, UniProt Q8VIM0 29-191); experiment: ELISA, coated mouse TIM-3 ECD protein, 0.0007 nM antibody
T2 construct: also called mouse TIM-3 extracellular domain protein; not shown: human IgG Fc fragment (hFc) of the pCpC vector
T2 chain: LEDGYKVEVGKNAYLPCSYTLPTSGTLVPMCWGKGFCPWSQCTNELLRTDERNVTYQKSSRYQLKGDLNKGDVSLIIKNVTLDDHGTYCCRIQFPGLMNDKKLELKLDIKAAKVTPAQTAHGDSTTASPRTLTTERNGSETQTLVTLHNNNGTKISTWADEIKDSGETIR

[4] = molecular target: T1, human TIM-3 extracellular domain …; experiment: FACS, blocking of hTIM-3-hFc binding to phosphatidylserine on apoptotic Jurkat cells, 0.274 nM antibody
Method: as §1

[5] = molecular target: T3, monkey TIM-3 on CHOK1 stable cell line (CHOK1-cTIM-3) (monkey); experiment: FACS, CHOK1-cTIM-3 cells, 0.064 nM antibody
T3 chain: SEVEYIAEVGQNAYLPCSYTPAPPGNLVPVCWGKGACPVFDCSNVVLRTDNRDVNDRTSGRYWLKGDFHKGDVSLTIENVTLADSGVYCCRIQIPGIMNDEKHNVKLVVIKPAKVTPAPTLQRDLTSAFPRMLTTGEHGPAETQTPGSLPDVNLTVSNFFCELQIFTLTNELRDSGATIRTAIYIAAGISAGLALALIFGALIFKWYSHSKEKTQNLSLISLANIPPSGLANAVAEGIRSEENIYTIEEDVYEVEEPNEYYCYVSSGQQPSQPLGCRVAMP

[6] = molecular target: T4, monkey TIM-3 protein with hFc tag (cTIM-3-hFc protein) (monkey; human); experiment: ELISA, coated cTIM-3-hFc; antibody 0.0067 nM
T4 construct: Made in HEK293 cells; also called monkey TIM-3 extracellular domain protein; not shown: human IgG Fc fragment (hFc) of the pCpC vector
T4 chain: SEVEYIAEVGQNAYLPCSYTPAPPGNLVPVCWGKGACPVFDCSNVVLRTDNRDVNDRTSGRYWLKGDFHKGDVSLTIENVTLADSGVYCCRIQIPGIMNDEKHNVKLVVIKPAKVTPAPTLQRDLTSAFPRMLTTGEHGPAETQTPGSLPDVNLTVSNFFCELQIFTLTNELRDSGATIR
Description: The amino acid sequence 22-200 of the extracellular domain of the human TIM-3 protein described in the step of Example 1 (as shown in SEQ ID NO. 71 in the sequence listing) was cloned into a pCpC vector having a human IgG Fc fragment (hFc), and transfected into HEK293 cells. The cell culture medium was collected, and purified to obtain the human TIM-3 protein with hFc tag (herein referred to as hTIM-3-hFc protein). The amino acid sequence 22-201 of the extracellular domain of the monkey TIM-3 protein (as shown in SEQ ID NO. 72 in the sequence listing) was cloned into a pCpC vector having a human IgG Fc fragment (hFc), and transfected into HEK293 cells. The cell culture medium was collected, and purified to obtain the monkey TIM-3 protein with hFc tag (herein referred to as cTIM-3-hFc protein). […] The cell culture medium was collected, and purified to obtain the murine TIM-3 protein with hFc tag (herein referred to as mTIM-3-hFc protein). Purified human, monkey, and mouse TIM-3 extracellular domain proteins (hTIM-3-hFc, cTIM-3-hFc, and mTIM-3-hFc) were diluted with PBS to a final concentration of 1.0 μg/ml and then added to a 96-well ELISA plate with 100 μl per well. The plate was sealed with plastic film and incubated overnight at 4° C. The plate was washed 4 times with the plate washing solution (PBS+0.01% Tween20) on the next day, and added with the blocking solution (PBS+0.01% Tween20+1% BSA) and sealed at room temperature for 1-2 hours. The blocking solution was poured out. 50-100 μl of the antibody sample to be tested was added to each well. The plate was incubated at 37° C. for 1-2 hours, and washed 2-3 times with plate washing solution (PBS+0. 01% Tween20). HRP (horseradish peroxidase) labeled secondary antibody was added. The plate was incubated at 37° C. for 1-2 hours, and washed 2-3 times with plate washing solution (PBS+0. 01% Tween20). […] of TMB substrate was added to each well. After incubated at room temperature for 15-30 minutes, the plate was added with […] stop solution (1.0N HCl) to each well. An ELISA plate reader (TiterMax 384plus, Molecular Device) was used to read the A450 nm value.

Inhibition ratio (%) [1]	Inhibition ratio (%) [2]	OD450 [3]	Inhibition ratio (%) [4]	Mean fluorescence intensity [5]	OD450 [6]	Binder
0.5%	56.9%	0.22	0.9%	17.2	–	B1
–	–	–	–	–	0.57	B2
–	–	0.24	–	35.4	–	B3
–	–	–	–	–	0.78	B4
1.6%	52.1%	0.21	0.3%	29.9	–	B5
–	–	–	–	–	0.7	B6
–	–	0.23	–	30.6	–	B7
–	–	–	–	–	0.85	B8
–	–	0.23	–	42.3	–	B9
–	–	–	–	–	1.13	B10
–	–	–	–	–	0.62	B11
5.5%	37.6%	0.21	8%	46.4	–	B12
–	–	–	–	–	0.56	B13
